Reference: patent publication US20250019439A1 (Adimab, published 2025)

How the values were obtained:
ADI-50024 = target: T1, ADI-50024; assay: SPR Carterra avidity, yeast anti-ID
T1 construct: anti-CD3 antibody made in CHO cells, captured by anti-human Fc
Procedure, shortened: (§1)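 Measured at 25° C in HBSTE running buffer on a Carterra LSA; anti-CD3 antibodies (100 nM) were captured for 5 min on an amine-coupled goat anti-human Fc HC30M chip. Anti-idiotype dissociation was followed for 300s, and double-referenced sensorgrams were fitted to a 1:1 binding model.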

ADI-70326 = target: T2, ADI-70326; assay: SPR Carterra avidity, yeast anti-ID
T2 construct: anti-CD3 antibody made in CHO cells, captured by anti-human Fc
T2 sequence (VH, as listed by the source limits assumed, chain 1 of 2): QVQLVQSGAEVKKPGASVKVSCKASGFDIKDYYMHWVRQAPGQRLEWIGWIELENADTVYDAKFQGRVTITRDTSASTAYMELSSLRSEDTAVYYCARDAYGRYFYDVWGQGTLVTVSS
T2 sequence (VL, as listed by the source limits assumed, chain 2 of 2): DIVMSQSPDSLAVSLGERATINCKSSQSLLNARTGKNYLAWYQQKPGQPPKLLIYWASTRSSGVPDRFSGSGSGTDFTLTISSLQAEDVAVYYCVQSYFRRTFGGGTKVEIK
Procedure, shortened: as §1

ADI-70327 = target: T3, ADI-70327; assay: SPR Carterra avidity, yeast anti-ID
T3 construct: anti-CD3 antibody made in CHO cells, captured by anti-human Fc
Procedure, shortened: as §1

ADI-70330 = target: T4, ADI-70330; assay: SPR Carterra avidity, yeast anti-ID
T4 construct: anti-CD3 antibody made in CHO cells, captured by anti-human Fc
T4 sequence (VH, as listed by the source limits assumed, chain 1 of 2): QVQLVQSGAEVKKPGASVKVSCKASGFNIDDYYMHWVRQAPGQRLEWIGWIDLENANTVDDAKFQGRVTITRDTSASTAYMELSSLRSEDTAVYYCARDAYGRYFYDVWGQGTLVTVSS
Procedure, shortened: as §1

ADI-26906 IgG = target: T5, ADI-26906 IgG; assay: SPR Carterra avidity, yeast anti-ID
T5 construct: anti-CD3 IgG
Procedure, shortened: as §1

ADI-26919 = target: T6, ADI-26919; assay: SPR Carterra avidity, yeast anti-ID
T6 construct: anti-CD3 antibody made in CHO cells, captured by anti-human Fc
Procedure, shortened: as §1

ADI-26916 IgG = target: T7, ADI-26916 IgG; assay: SPR Carterra avidity, yeast anti-ID
T7 construct: anti-CD3 IgG
Procedure, shortened: as §1

ADI-48576 = target: T8, ADI-48576; assay: SPR Carterra avidity, yeast anti-ID
T8 construct: pH-dependent anti-CD3 antibody made in CHO cells
T8 sequence (VH, as listed by the source, chain 1 of 2): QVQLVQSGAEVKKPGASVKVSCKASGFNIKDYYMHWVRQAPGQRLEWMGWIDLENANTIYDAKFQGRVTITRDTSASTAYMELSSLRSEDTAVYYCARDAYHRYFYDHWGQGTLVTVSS
T8 sequence (VL, as listed by the source, chain 2 of 2): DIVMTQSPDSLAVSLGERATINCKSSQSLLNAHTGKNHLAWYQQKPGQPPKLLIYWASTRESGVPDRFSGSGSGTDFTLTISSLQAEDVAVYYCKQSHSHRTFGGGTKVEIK
Procedure, shortened: as §1

ADI-48587 = target: T9, ADI-48587; assay: SPR Carterra avidity, yeast anti-ID
T9 construct: pH-dependent anti-CD3 antibody made in CHO cells
Procedure, shortened: as §1

ADI-48592 = target: T10, ADI-48592; assay: SPR Carterra avidity, yeast anti-ID
T10 construct: pH-dependent anti-CD3 antibody made in CHO cells
Procedure, shortened: as §1

ADI-48650 = target: T11, ADI-48650; assay: SPR Carterra avidity, yeast anti-ID
T11 construct: pH-dependent anti-CD3 antibody made in CHO cells
T11 sequence (VH, as listed by the source, chain 1 of 2): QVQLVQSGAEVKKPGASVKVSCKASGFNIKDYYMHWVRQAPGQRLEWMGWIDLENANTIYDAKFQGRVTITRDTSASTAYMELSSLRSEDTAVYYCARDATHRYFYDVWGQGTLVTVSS
T11 sequence (VL, as listed by the source, chain 2 of 2): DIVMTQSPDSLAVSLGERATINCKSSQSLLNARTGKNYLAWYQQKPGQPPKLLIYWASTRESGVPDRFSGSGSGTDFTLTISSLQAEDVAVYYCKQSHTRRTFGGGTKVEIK
Procedure, shortened: as §1

ADI-74965 = target: T12, ADI-74965; assay: SPR Carterra avidity, yeast anti-ID
T12 construct: pH-dependent anti-CD3 antibody made in CHO cells
T12 sequence (VH, as listed by the source, chain 1 of 2): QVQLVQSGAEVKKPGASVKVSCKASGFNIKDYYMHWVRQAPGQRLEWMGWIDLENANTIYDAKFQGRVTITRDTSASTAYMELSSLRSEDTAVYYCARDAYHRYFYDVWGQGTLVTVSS
T12 sequence (VL, as listed by the source, chain 2 of 2): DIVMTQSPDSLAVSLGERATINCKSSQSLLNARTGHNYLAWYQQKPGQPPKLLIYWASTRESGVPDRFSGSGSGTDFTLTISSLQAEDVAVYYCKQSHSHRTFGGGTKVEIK
Procedure, shortened: as §1

ADI-74968 = target: T13, ADI-74968; assay: SPR Carterra avidity, yeast anti-ID
T13 construct: pH-dependent anti-CD3 antibody made in CHO cells
T13 sequence (VL, as listed by the source, chain 2 of 2): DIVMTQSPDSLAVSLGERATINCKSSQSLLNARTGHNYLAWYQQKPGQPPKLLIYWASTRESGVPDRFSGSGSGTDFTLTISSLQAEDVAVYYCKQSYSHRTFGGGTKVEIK
Procedure, shortened: as §1

ADI-76357 = target: T14, ADI-76357; assay: SPR Carterra avidity, yeast anti-ID
T14 construct: anti-CD3 antibody made in CHO cells, captured by anti-human Fc
T14 sequence (VH, as listed by the source, chain 1 of 2): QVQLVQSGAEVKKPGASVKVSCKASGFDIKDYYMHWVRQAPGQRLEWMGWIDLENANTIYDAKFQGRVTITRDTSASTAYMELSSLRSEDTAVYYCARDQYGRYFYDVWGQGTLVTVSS
T14 sequence (VL, as listed by the source, chain 2 of 2): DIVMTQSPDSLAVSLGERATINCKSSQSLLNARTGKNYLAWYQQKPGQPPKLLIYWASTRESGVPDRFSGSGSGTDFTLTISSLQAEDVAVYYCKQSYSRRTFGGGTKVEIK
Procedure, shortened: as §1

ADI-76358 = target: T15, ADI-76358; assay: SPR Carterra avidity, yeast anti-ID
T15 construct: anti-CD3 antibody made in CHO cells, captured by anti-human Fc
T15 sequence (VH, as listed by the source, chain 1 of 2): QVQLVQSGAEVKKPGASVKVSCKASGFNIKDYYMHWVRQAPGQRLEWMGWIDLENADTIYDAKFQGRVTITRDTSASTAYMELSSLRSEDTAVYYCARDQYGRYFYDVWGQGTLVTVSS
Procedure, shortened: as §1

ADI-76360 = target: T16, ADI-76360; assay: SPR Carterra avidity, yeast anti-ID
T16 construct: anti-CD3 antibody made in CHO cells, captured by anti-human Fc
Procedure, shortened: as §1

ADI-76361 = target: T17, ADI-76361; assay: SPR Carterra avidity, yeast anti-ID
T17 construct: anti-CD3 antibody made in CHO cells, captured by anti-human Fc
T17 sequence (VH, as listed by the source, chain 1 of 2): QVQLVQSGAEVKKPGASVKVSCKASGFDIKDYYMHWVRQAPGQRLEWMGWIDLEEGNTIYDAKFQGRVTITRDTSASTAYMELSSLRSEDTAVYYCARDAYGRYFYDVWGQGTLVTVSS
T17 sequence (VL, as listed by the source, chain 2 of 2): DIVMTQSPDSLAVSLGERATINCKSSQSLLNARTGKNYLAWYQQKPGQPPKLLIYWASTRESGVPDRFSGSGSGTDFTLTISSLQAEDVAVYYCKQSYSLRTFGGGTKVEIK
Procedure, shortened: as §1

CTL-62223 = target: T18, CTL-62223; assay: SPR Carterra avidity, yeast anti-ID
T18 construct: also called mosunetuzumab
Procedure, shortened: as §1

ADI-22523 Fab = target: T19, ADI-22523 Fab; assay: BLI; tip anti-ID IgG, solution ADI-22523 Fab
T19 construct: anti-CD3 Fab by papain digestion of the IgG
T19 sequence (VH, as listed by the source limits assumed, chain 1 of 2): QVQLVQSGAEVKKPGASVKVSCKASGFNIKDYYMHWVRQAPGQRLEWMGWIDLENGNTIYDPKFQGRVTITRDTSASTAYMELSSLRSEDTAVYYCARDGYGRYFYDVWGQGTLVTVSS
T19 sequence (VL, as listed by the source limits assumed, chain 2 of 2): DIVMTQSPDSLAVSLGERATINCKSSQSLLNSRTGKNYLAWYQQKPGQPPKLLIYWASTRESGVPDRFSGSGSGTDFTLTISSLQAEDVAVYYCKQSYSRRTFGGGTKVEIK
Procedure, shortened: (§2)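 Anti-ID IgG was captured on AHC biosensors, equilibrated in assay buffer for 30 min, then baselined for 60 s. KD = koff/kon came from a 1:1 binding fit.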

ADI-22523 IgG = target: T20, ADI-22523 IgG; assay: BLI; tip anti-ID IgG, solution ADI-22523 IgG
T20 construct: anti-CD3 IgG
Procedure, shortened: as §2

ADI-67450 = target: T21, ADI-67450; assay: SPR Carterra avidity, yeast anti-ID, *koff limit
T21 construct: anti-CD3 antibody made in CHO cells, captured by anti-human Fc
Procedure, shortened: as §1

ADI-67445 = target: T22, ADI-67445; assay: SPR Carterra avidity, yeast anti-ID, *koff limit
T22 construct: anti-CD3 antibody made in CHO cells, captured by anti-human Fc
T22 sequence (VH, as listed by the source limits assumed, chain 1 of 2): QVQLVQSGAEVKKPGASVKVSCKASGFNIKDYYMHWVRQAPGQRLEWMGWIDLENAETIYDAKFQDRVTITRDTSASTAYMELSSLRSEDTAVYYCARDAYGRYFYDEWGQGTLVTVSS
Procedure, shortened: as §1

ADI-67447 = target: T23, ADI-67447; assay: SPR Carterra avidity, yeast anti-ID, *koff limit
T23 construct: anti-CD3 antibody made in CHO cells, captured by anti-human Fc
T23 sequence (VH, as listed by the source limits assumed, chain 1 of 2): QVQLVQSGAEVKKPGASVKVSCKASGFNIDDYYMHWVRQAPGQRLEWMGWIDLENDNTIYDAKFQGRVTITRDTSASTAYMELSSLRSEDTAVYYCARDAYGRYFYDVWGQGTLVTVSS
Procedure, shortened: as §1

ADI-26909 = target: T24, ADI-26909; assay: SPR Carterra avidity, yeast anti-ID, *koff limit
T24 construct: anti-CD3 antibody made in CHO cells, captured by anti-human Fc
Procedure, shortened: as §1

ADI-26913 IgG = target: T25, ADI-26913 IgG; assay: SPR Carterra avidity, yeast anti-ID, *koff limit
T25 construct: anti-CD3 IgG
T25 sequence (VH, as listed by the source limits assumed, chain 1 of 2): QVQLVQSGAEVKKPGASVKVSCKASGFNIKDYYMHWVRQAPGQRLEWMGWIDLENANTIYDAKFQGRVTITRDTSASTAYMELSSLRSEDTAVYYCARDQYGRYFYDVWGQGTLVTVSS
Procedure, shortened: as §1

ADI-26920 IgG = target: T26, ADI-26920 IgG; assay: SPR Carterra avidity, yeast anti-ID, *koff limit
T26 construct: anti-CD3 IgG
T26 sequence (VH, as listed by the source limits assumed, chain 1 of 2): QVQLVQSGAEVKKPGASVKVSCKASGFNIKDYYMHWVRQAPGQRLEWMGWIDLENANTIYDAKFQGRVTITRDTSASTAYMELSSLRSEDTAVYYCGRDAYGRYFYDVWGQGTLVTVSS
Procedure, shortened: as §1

ADI-26921 IgG = target: T27, ADI-26921 IgG; assay: SPR Carterra avidity, yeast anti-ID, *koff limit
T27 construct: anti-CD3 IgG
Procedure, shortened: as §1

ADI-26924 = target: T28, ADI-26924; assay: SPR Carterra avidity, yeast anti-ID, *koff limit
T28 construct: anti-CD3 antibody made in CHO cells, captured by anti-human Fc
T28 sequence (VH, as listed by the source, chain 1 of 2): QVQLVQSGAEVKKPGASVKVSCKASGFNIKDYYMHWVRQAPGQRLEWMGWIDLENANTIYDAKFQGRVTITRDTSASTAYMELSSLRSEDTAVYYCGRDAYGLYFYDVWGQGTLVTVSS
Procedure, shortened: as §1

ADI-26943 = target: T29, ADI-26943; assay: SPR Carterra avidity, yeast anti-ID, *koff limit
T29 construct: anti-CD3 antibody made in CHO cells, captured by anti-human Fc
Procedure, shortened: as §1

ADI-74966 = target: T30, ADI-74966; assay: SPR Carterra avidity, yeast anti-ID, *koff limit
T30 construct: pH-dependent anti-CD3 antibody made in CHO cells
Procedure, shortened: as §1

ADI-74967 = target: T31, ADI-74967; assay: SPR Carterra avidity, yeast anti-ID, *koff limit
T31 construct: pH-dependent anti-CD3 antibody made in CHO cells
Procedure, shortened: as §1

ADI-76359 = target: T32, ADI-76359; assay: SPR Carterra avidity, yeast anti-ID, *koff limit
T32 construct: anti-CD3 antibody made in CHO cells, captured by anti-human Fc
T32 sequence (VH, as listed by the source, chain 1 of 2): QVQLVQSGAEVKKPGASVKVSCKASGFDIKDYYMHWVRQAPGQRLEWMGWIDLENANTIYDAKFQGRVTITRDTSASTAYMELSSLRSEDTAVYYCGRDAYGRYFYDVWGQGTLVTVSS
Procedure, shortened: as §1

ADI-76362 = target: T33, ADI-76362; assay: SPR Carterra avidity, yeast anti-ID, *koff limit
T33 construct: anti-CD3 antibody made in CHO cells, captured by anti-human Fc
T33 sequence (VH, as listed by the source, chain 1 of 2): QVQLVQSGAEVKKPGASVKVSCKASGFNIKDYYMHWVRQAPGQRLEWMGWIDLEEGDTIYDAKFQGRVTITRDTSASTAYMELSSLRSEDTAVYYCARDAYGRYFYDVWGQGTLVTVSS
Procedure, shortened: as §1

B1: ADI-34138 (antibody, V domains shown)
VH: QVQLVQSGAEVKKPGSSVKVSCKASGGTFSSYAISWVRQAPGQGLEWMGGIIPIFGTANYAQKFQGRVTITADESTSTAYMELSSLRSEDTAVYYCARGAPNYYGSGGYDDGWFDPWGQGTLVTVSS
VL: EIVMTQSPGTLSLSPGERATLSCRASQSVSSSYLAWYQQKPGQAPRLLIYGASNRATGIPDRFSGSGSGTDFTLTISRLEPEDFAVYYCQQAHTALWTFGGGTKVEIK
notes: anti-ID IgG
- Kd (ADI-50024): 19 nM
- Kd (ADI-70326): 42 nM
- Kd (ADI-70327): 160 nM
- Kd (ADI-70330): 45 nM
- Kd (ADI-26906 IgG): 20 nM
- Kd (ADI-26919): 33 nM
- Kd (ADI-26916 IgG): 64 nM
- binding result (ADI-48576): binds
- Kd (ADI-48587): 29 nM
- binding result (ADI-48592): binds
- Kd (ADI-48650): 110 nM
- Kd (ADI-74965): 34 nM
- Kd (ADI-74968): 29 nM
- Kd (ADI-76357): 17 nM
- Kd (ADI-76358): 29 nM
- Kd (ADI-76360): 57 nM
- Kd (ADI-76361): 21 nM
- Kd (CTL-62223): 46 nM
- Kd (ADI-22523 Fab): 9.69 nM
- Kd (ADI-22523 IgG): 0.57 nM
- Kd (ADI-67450): 27 nM
- Kd (ADI-67445): 27 nM
- Kd (ADI-67447): 12 nM
- Kd (ADI-26909): 12 nM
- Kd (ADI-26913 IgG): 16 nM
- Kd (ADI-26920 IgG): 10 nM
- Kd (ADI-26921 IgG): 17 nM
- Kd (ADI-26924): 16 nM
- Kd (ADI-26943): 22 nM
- Kd (ADI-74966): 15 nM
- Kd (ADI-74967): 18 nM
- Kd (ADI-76359): 9.5 nM
- Kd (ADI-76362): 17 nM
